According to patent US20040023887A1 (published 2004):
Positions of bridges follow the written chain, without caps; N, C: chain ends. Chains are numbered I, II in the order given. No end group written: not given here.

Assays:
Insulin Receptor (IR) = Insulin Receptor (IR) (UniProt P06213 28-956, limits assumed); assay: BIAcore competition: IR pre-incubated with about 40 µM peptide, residual binding to immobilised insulin
Protocol: Flowcell-1 was used for background binding to correct for any non-specific binding. […] The surface was regenerated with 25 mM NaOH.

[1] = biological target: T1, human insulin receptor (HIR) (human, UniProt P06213-2 28-1370, limits assumed); assay: 125I-insulin competition on purified HIR
T1 construct: detergent-solubilised receptor

[2] = biological target: T2, human insulin receptor (HIR) (human, UniProt P06213-2 28-1370, limits assumed); assay: 125I-insulin competition on purified HIR
T2 construct: Also used for the WGA-purified recombinant human insulin receptor of the kinase assay

[3] = biological target: T3, soluble HIR ectodomain (sIR) (human, UniProt P06213-2 28-944, limits assumed); assay: FP competition, label FITC-RP9, sIR
T3 construct: extracellular domain

[4] = biological target: T4, soluble human insulin receptor-immunoglobulin heavy chain chimera (sIR-Fc) (human, UniProt P06213 28-956, limits assumed, Eu3+ (LANCE) labelled in the TR-FRET assays); assay: TR-FRET competition, label b-RP9, Eu-sIR-Fc
T4 construct: extracellular domain; also called HIR-immunoglobulin heavy chain chimera; not shown: immunoglobulin heavy chain constant domains

[5] = biological target: T4, soluble human insulin …; assay: TR-FRET competition, label b-S175, Eu-sIR-Fc
[6] = biological target: T4, soluble human insulin …; assay: FP competition, label FITC-RP9, sIR-Fc
[7] = biological target: T2, human insulin receptor (HIR); assay: radio-receptor assay, label 125I-insulin, HIR
[8] = biological target: T5, Insulin receptor prepared according to Bass et al., 1996 (soluble IR-immunoglobulin chimera) (human, UniProt P06213 28-956); assay: phage ELISA, receptor coated on plate; A405 over non-fat milk
T5 construct: extracellular domain; also called sIR-Fc; soluble IR (Bass construct); not shown: immunoglobulin constant domains replacing the transmembrane and intracellular domains

[9] = biological target: T6, Soluble IGF-1R (R&D Systems, Cat. # 391-GR/CF) (human, UniProt P08069 31-935); assay: as above
T6 construct: extracellular domain; the precursor is cleaved into alpha and beta subunits; also called sIGF-1R

[10] = biological target: T6, Soluble IGF-1R (R&D Systems, Cat. # …); assay: phage ELISA; IGF-1R ratio divided by IR ratio
[11] = biological target: T7, human insulin receptor (HIR), purified from transfected cells after solubilization with Triton X-100 (human, UniProt P06213-2 28-1370, limits assumed); assay: competition with 125I-insulin on solubilized HIR, PEG precipitation
T7 construct: mature

B1: D8 (synthetic peptide) (peptide)
peptide: KWLDQEWAWVQCEVYGRGCPSKK
% Binding (Insulin Receptor (IR)): 33%
Result (RUs) (Insulin Receptor (IR)): 41.6 RU

B2: H2 (peptide)
peptide: VTFTSAVFHENFYDWFVRQVS
% Binding (Insulin Receptor (IR)): 27%
Result (RUs) (Insulin Receptor (IR)): 34.6 RU

B3: S326 (peptide)
peptide: GIISQSCPESFYDWFAGQVSDPWWCW
notes: also called G33
Kd [1]: 590 nM

B4: S441 (peptide)
peptide 1: ESFYDWFERQLGGGGK
peptide 2: WAWVQCEVYGRGCPS
modifications: not fully specified (bridges); cysteine pairing not given here; also: C-terminus of chain 2 linked to Lys16 of chain 1, bond at chain A 16 to a chain's C-terminus
Kd [2]: 120 nM

B5: S327 (peptide)
peptide: TFYSCLASLLTGTPQPNRGPWERCRKK
Kd [1]: 21 nM

B6: S443 (peptide)
peptide 1: ESFYDWFERQLGGGGK
peptide 2: WVQCEVYGRGCPS
modifications: not fully specified (bridges); cysteine pairing not given here; also: C-terminus of chain 2 linked to Lys16 of chain 1, bond at chain A 16 to a chain's C-terminus
Kd [2]: 170 nM

B7: RP9 (peptide)
peptide: GSLDESFYDWFERQLGKK
notes: also called S371
IC50 [3]: 0.03 nM
IC50 [4]: 42 nM
IC50 [5]: 6 nM
IC50 [6]: 10 nM
IC50 [7]: 44 nM

B8: 20C11 (peptide)
peptide: DRAFYNGLRDLVGAVYGAWD
% Binding (Insulin Receptor (IR)): 38%
Result (RUs) (Insulin Receptor (IR)): 49 RU

B9: S442 (peptide)
peptide 1: ESFYDWFERQLGGGGK
peptide 2: AWVQCEVYGRGCPS
modifications: disulfide II:5-II:12 (inferred); also: bond at chain A 16 to a chain's C-terminus
Kd [2]: 160 nM

B10: 2A9 (peptide)
peptide: LCQSWGVRIGWLTGLCP
% Binding (Insulin Receptor (IR)): 100%
Result (RUs) (Insulin Receptor (IR)): 128 RU

B11: S395 (peptide)
peptide: GSLDESFYDWFERQL
Kd [1]: 81 nM

B12: B6L-3-G5-IR (peptide)
peptide: AETSAQVGWQRLWSVWPGDHWSTLDPFYHKLSELLRESGA
notes: library tags and phage coat protein not included
ratio over background (IR) [8]: 1.4 fold over background
ratio over background (IGF-1R) [9]: 2 fold over background
IGF-1R/IR ratio comparison [10]: 1.4 ratio

B13: S484 (peptide)
peptide: LDQEWAVQCEVYGRGCPSESFYDWFERQLG
Kd [2]: 87 nM

B14: S444 (peptide)
peptide 1: ESFYDWFERQLGGGGK
peptide 2: VQCEVYGRGCPS
modifications: not fully specified (bridges); cysteine pairing not given here; also: C-C branched: chain 2 C-terminus bonded to Lys16 side chain
Kd [2]: 190 nM

B15: S415 (peptide)
peptide: ESFYDWFERQLGKX
chain: ESFYDWFERQLGKX
modifications: not fully specified; C-terminus joined to chemical linker 23 of Table 3; C-C linked dimer
notes: Synthetic truncated RP9 homodimer
Kd [11]: 100 nM
